# System: MS2 coat protein
# Test: apparent KD of MS2 coat protein; higher = weaker reporter binding
# Conditions: Eterna round: R107
# Description: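 RNA-MaP round R107: designed RNA switches with theophylline, tryptophan, arginine or FMN aptamers are transcribed on-chip within common flanks. They are titrated with SNAP-549-labelled MS2 coat protein in RNA-MaP buffer (100 mM Tris pH 7.5, 80 mM KCl, 4 mM MgCl2), without ligand or with the indicated ligand. Median apparent KD per design.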
# [1] = input ligand: theophylline 20 uM
# [2] = input ligand: theophylline 2 mM
# [3] = input ligand: tryptophan 2.4 mM
Sequence,apparent KD of MS2 coat protein (input ligand: arginine 13.2 mM) [nM],apparent KD of MS2 coat protein (input ligand: none) [nM],apparent KD of MS2 coat protein [1] [nM],apparent KD of MS2 coat protein [2] [nM],apparent KD of MS2 coat protein [3] [nM]
AUACAUGAGGAUCACCCAUGUAUGGAUGAAGGAGCGACCAGAGGGUCAGGUAGGUCGCAUCACAUGAGGAUCACCCAUGUAGAAA [DOUBLE!!! :-D #11],20.3,23.4,25.2,26.1,24
CAGCACAUGAGGAUCACCCAUGUGAGGGAUACCAGCUCAGGCGUGGGCCCUUGGCAGCUCUCUGGCUGACGAAAGUCAGCCUGUG [#20 SameState-TheophyllineA],14.4,–,24.2,–,13.6
GGCACGUACGGAAGGAGCGACUGUUCAACGUGGGUACAUGAGGAUCACCCAUGUCUCCGCAGUCAGGUAGGUCGCCGUACGUGCC [EAB NP+V+V2 #20],15,12.2,19.8,13.2,10.7
GGACUAACCUGAAGGAGCGGCGCGCAGAAACUGCAAAUUCCUCCACACGAGGAUCACCCGUGUCAGGUAGGUCGCAGGUUAGUCG [ArgBX 28],11.5,12.1,16.6,12.6,12.7
ACAUGAGGAUCACCCAUGUAGAAAGAUCCUCGAGGACCGGUACGGCCGCCACUCGAGUGGCAGUGUGUGCAGAAAAUGCGCGCGC,28.6,50.9,92.2,81.4,14.2
AAGGGAGAGUCAGAUACCAGAGUAAGAUGGCAUGGUAAUUACAUGAGGAUCACCCAUGUAUUCCCUUGGCAGCUGACCCUACGUU [Exclusion Theophylline B GF 19],17.6,14.1,16.7,16.6,12.8
GGACUAACCAGAAGGAGCGACACAAGCAGAAACUGCAAUCCUCCGCACGAGGAUCACCCGUGUCAGGUAGGUCGCUGGUUAGUCG [ArgBX 28],57.5,63.7,96.8,96.8,67.4
CGACUGUAAAGUCGACCGGUCAUCAAUAAUCGAGGACCGGUACGGCCGCCACUCGAUGUGAUUUCACAUGAGGAUCACCCAUGUA [Tryptophan A 17],24.1,–,26.3,29.1,–
UGUAACAUGAGGAUCACCCAUGUAAGUGAUACCAGAUAAGUAGUAGUCCCUUGGCAGCAUAUUGGGCAAGUGUAUAGUCUAUACG [Same State - Theophylline A (Freestyle 6)],43,–,65.3,–,48.3
GGGCGAGUGGAGCGGCGUGCUCCGCUCCGUCGAGGACCGGUACGGCCGCCACUCGACAUGAGGAUCACCCAUGUGCGAGCUCGCG [#1 Exclusion - Tryptophan A Attempt #13 (HarryS)],7.39,17.6,27.1,58.6,180
AUGCGGUGCGGAAGGAGCGAGUUUGCCUAUUUACAUGAGGAUCACCCAUGUCCUAAUGGGACUCAGGUAGGUCGCCGUUGUCGCA [Same State Arginine B GF 29],47.7,45.5,65.5,49.9,52.1
ACAUGAGGAUCACCCAUGUACAUCACCCGACGAGGACCGGUACGGCCGCCACUCGGGUAUAUAUUUACAUCGGGUGAUUUUACGU [#23 Tryptophan A Same State],21.9,–,81.2,115,–
UCGCCCAGAAAGGAUUGCUGGGAUAUGGAAGGAGCGCUGAUGCCAGCAGGUAGGUCGCCAACGGACAUGAGGAUCACCCAUGUAC [Same State - Arginine A (Freestyle 6)],16.7,19.8,28.7,21.1,20.9
GUACAUGAGGAUCACCCAUGUAUAGUUGAAGGAGCGACCAGAGGGUCAGGUAGGUCGCAGCACAUGGCGUAAACCCGUGUAUGCC [#1 Exclusion - Arginine A Attempt #23 (Inspired by Pi)],20.4,21,27.9,24.9,21.2
CAAACAUGAGGAUCACCCAUGUAAUCAGAUACCAGUGACGAAAGUCACCCUUGGCAGCUGAUUACUUUAGUUCUAAGGUGUUUGA [EThA NP+V+V2 #5 +-Same Structure],53.6,–,116,–,38.7
CAAAAUAUAACGGCCGCCACUUACUCAUGAGGUAACAACAUGAGGAUCACCCAUGUUUGAGGAUCAAGGACCGGGUUAUAUUUUG [AstrosSSTry#21],24.7,–,34.9,33,–
CAAUAUAUAUGAAGGAGCGACAUGAGGAUCACCCAUGUCUACCACGUCGAAAGACGCUCAUGUCAGGUAGGUCGCAUAUAUAUUG [Astros-Eli-mod4],71.9,102,129,144,90.9
GAACAUGAGGAUCACCCAUGUGAGAAUGAUACCAGUAGAAGAAGAUGCCCUUGGCAGCGUGCGUGAGGAUCACCCAUGUAGGAGG [e-theoA-0],30,–,34.1,–,25.9

Sequence,apparent KD of MS2 coat protein (input ligand: arginine 13.2 mM) [nM],apparent KD of MS2 coat protein (input ligand: none) [nM],apparent KD of MS2 coat protein [1] [nM],apparent KD of MS2 coat protein [2] [nM],apparent KD of MS2 coat protein [3] [nM]
AAGACCAGGAGGUGAUCCUAACUGGUCCAACGAGGACCGGUACGGCCGCCACUCGAAUAAACAUGAGGAUCACCCAUGUAAUAAU [T''-M-T'-T-MS2],58.7,–,101,90.1,–
UUGGUACGACAGCUCAUAUAAGCAUGUGAUACCAGACUGGAAACAGUCCCUUGGCAGCACUUUACAUGAGGAUCACCCAUGUCGG [EThA NP+V+V2 #3 +-Same Structure],76.6,–,201,–,212
GUUAUAGACGGAAGGAGCGCGGCCACAUGAGGAUCACCCAUGUAUUGUGUUGGUAAUAGGUCGCAGGUAGGUCGCCGAUUAAUGA [Same State - Arginine B / A],35.9,55.1,61.7,47.5,34
AAGACAUGAGGAUCACCCAUGUCGUGUGAACGAGGACCGGUACGGCCGCCACUCGUUUGAAAAUAAACGAAUGCGGCCUGGGAAA [Exclusion Tryp A GF1],11.1,–,13.4,12.3,–
CAAUAUAUAACGGCCGCCACUUACUCAUGAGGUAACAACAUGAGGAUCACCCAUGUUUGAGGAUCAAGGACCGGGUUAUAUAUUG [AstrosSSTry#19],29.3,28,33,27.1,18.4
UUUUUUAUCAUGGCGUAUCGGAAAACCGAUACCAGUACAGAAAUGUACCCUUGGCAGCGGCGUUUUACAUGAGGAUCACCCAUGU [Ex Theophylline A 4],15.1,–,23.7,–,14.9
CUCCCACUAUCUGAUACCAGAGGAUAAACGUAGACUGGGAACAUGAGGAUCACCCAUGUCCUCCCUUGGCAGCAGGACUUAUCUC [theeternabot_exclusion_MS2_Theo_B_29],22.2,–,29.9,–,22.2
GUAUAUUAUAGAAGGAGCGUCGAAAAUGGGUAAACAUGAGGAUCACCCAUGUAAAGGGAACGACAGGUAGGUCGCUAUAAUAUAC [AstromonsSSArgB#14],154,218,233,311,220
ACAUUUAACUGAAGGAGCGUGAUAAACAUGAGGAUCACCCAUGUACCAAAGAUUUUCAGUUCACAGGUAGGUCGCAGACUAAUGA [JR_ExcArginiB_Sub016],10.6,11.1,13.8,11.5,10.8
AAGGGACAUGAGGAUCACCCAUGUACCGAAGGAGCGGCAGAGAUGCCAGGUAGGUCGCGGUACUUGCCGGGUCAUUCAUGCAAAA [Teanbe],16.4,18.8,23.5,21.9,21.8
AGACUUCGCAUAGGAAAACUAUGUGAAGUCCGAGGACCGGUACGGCCGCCACUCGUCCUCACAUGAGGAUCACCCAUGUAAAUAA [#OpenEnded 2 #CuTurnoff #Tail],22.7,–,–,24.5,–
UGUUUGGUGCGCGAGUGUUGGAUAAUUGAUACCAGUGUAGAUGUGCGCCCUUGGCAGCGAAUCCUAACAUGAGGAUCACCCAUGU [5.Y],38.2,–,59.5,–,41.8
AAUGUAUGGCACAUGAGGAUCACCCAUGUGCGAGGACCGGUACGGCCGCCACUCGGUCGUGGGUUCUUAUUACUAUACAUUAAUG [XTryp A #14],11.4,–,12.8,11.6,–
GUAUACAUGAGGAUCACCCAUGUACCAGAAGGAGCGCUGGAAACAGCAGGUAGGUCGCUGGUAGGUCCUCUAUCUAGACGUUCUU [EAA NP+V+V2 #6],40.5,193,167,157,110
AUAACAUGAGGAUCACCCAUGUAGAGUGAUACCAGACUACGUAAUGUCCCUUGGCAGCACAAGUAAAGUUACGAAUAUUGAUAGA [JR_SSTheophyA_Sub003],123,–,198,–,143
UCCACAUGAGGAUCACCCAUGUGCCAUGAUACCAGACAUGAAAAUGUCCCUUGGCAGCAUGAGUGAGGCAUCCGAAAGGAUGCCU [Chrlice],149,157,260,38.3,409
AAAUAAAUAACUGAUACCAGUCGGACAACAUGAGGAUCACCCAUGUUCACCCAUGUUGAGGACCCUUGGCAGCAGAAAUAUAAAA [test (nupak+vienna],41.5,–,116,–,243
